Data set [1] concerns the target T1, AtBioZ (FabH2, beta-ketoacyl-ACP synthase III) (Agrobacterium fabrum, UniProt Q7CTU0, C115A).
T1 construct: gene bioZ; purified BioZ(C115A)
Description: ITC (MicroCal PEAQ-ITC, […] °C), N = […]. The class given is binding.

Data set [2] deals with the molecule itself. Description: SEC; gel filtration of purified AtBioZ on Superdex 200 Increase 10/300; GF buffer (25 mM Tris-HCl pH 8.0, 100 mM NaCl, 2 mM DTT). For orientation: In gel filtration, larger molecules generally elute earlier.
Data set [3] addresses BioZ(C115A) mutant enzyme of Agrobacterium tumefaciens (Agrobacterium tumefaciens), A0AA44. The data set is described as follows: ITC; MicroCal PEAQ-ITC, 25 °C; 50 μM BioZ(C115A) in the cell, 750 μM substrate in the syringe; 20 mM Tris pH 8.0, 150 mM NaCl; one binding-site model; three independent measurements. The settings on record: remark: other sources report otherwise.

With `CC(C)(COP(=O)(O)OP(=O)(O)OC[C@H]1O[C@@H](n2cnc3c(N)ncnc32)[C@H](O)[C@@H]1OP(=O)(O)O)[C@@H](O)C(=O)NCCC(=O)NCCSC(=O)CCCC(=O)O` [glutaryl-CoA], in data set [1], the affinity, expressed as Kd, was 2640 ± 230 nM.

B1: Agrobacterium tumefaciens BioZ (enzyme, UniProt A0AA44F6N6 1-328, looked up)
chain: MQTRSSRMAGFGHAVPARCVRNAEIETRLGLEAGWIERRTGIRTRYWAQEGETLSGLAEKAGRMALENARIGAEDIALTLLATSTPDHLLPPSAPLLAHRLGLTQSGAIDLAGACSGFLYALTLADGFVRTHGRAVLVVAANILSRRINPAERATAVLFADAAGAVVLVPCRDAQRGLLSADLVSDGSGYDLIQIAAGGSSQPFSNDTEAEDTLMTMRDGREVFSRAVATMTQTSQRALQRAEMTATDIQRFLPHQANARMFDAVCGNIGIDRQKTVRTVETFGNSSAATIPLSLSVSNAERPITEGETLLLTAAGAGMTGGAVVYRG
notes: BioZ (FabH2), atypical beta-ketoacyl-ACP synthase III of Agrobacterium tumefaciens; bioZ gene cloned into pET28a; apparent mass ~36 kDa; 654 protein residues in the two protomers of PDB 6KUE; also called AtBioZ; FabH2; source: E. coli BL21 with pET28::atbioZ, purified (Ni-NTA, TEV cleavage, Superdex 200 Increase SEC); not shown: His6, N-terminal, cleaved
Take B1: the stoichiometry N – broadly, a count of units in the complex or per binding partner – in data set [2] amounted to 2.

B2: glutaryl-ACP, P0A6A8 1-78 (natural protein)
chain: MSTIEERVKKIIGEQLGVKQEEVTNNASFVEDLGADSLDTVELVMALEEEFDTEIPDEEAEKITTVQAAIDYINGHQA
modifications: here or on the partner: glutaryl thioester on the phosphopantetheine (Ppan) of Serine 36
As for B2, in data set [3], the Kd (commonly the equilibrium constant for the complex coming apart) came to 6.17 µM and the stoichiometry N was determined as 0.978.

B3: malonyl-ACP, P0A6A8 1-78 (natural protein)
chain: B2 chain
modifications: here or on the partner: malonyl thioester on the phosphopantetheine (Ppan) of Serine 36
For B3, in data set [3], the Kd was determined as 24.1 µM and the stoichiometry N is 0.996.

B4: E. coli holo-ACP, P0A6A8 1-78 (natural protein)
chain: B2 chain
modifications: here or on the partner: phosphopantetheine (Ppan) on Serine 36 (holo-ACP)
In data set [3], B4 gave a Kd of 330 µM and a stoichiometry N of 1.

The values are drawn from paper PMC8024396, “Biochemical and structural characterization of the BioZ enzyme engaged in bacterial biotin synthesis pathway” (Nature Communications, 2021).
